Assay results from US20240182549A1, “PEPTIDES AND ANTIBODY FUSIONS THAT BIND TO SARS-COV-2 AND METHODS OF USING SAME” (priority 2021, published 2024).

How the values were obtained:
[1] = target: S protein of authentic (isogenic) SARS-CoV-2 variant B.1.351, on virus (SARS-CoV-2) (UniProt P0DTC2); assay: cell-based or functional assay
[2] = target: S protein of authentic SARS-CoV-2 variant D614G, on virus (SARS-CoV-2) (UniProt P0DTC2); assay: cell-based or functional assay

IgG REGN10933 (antibody)
IC50, focus reduction neutralization test [1]: > 1000 ng/mL | IC50, focus reduction neutralization test [2]: 10 ng/mL
